Entries after “also recorded” stand apart in the source; their conditions may differ.

One assay deals with PKN in Swiss 3T3 cells. In kind it is cell-based. The settings on record: 200 ng/ml for 10 min.
In a further assay the target is T1, RhoA^Val14 CLVL^− (Homo sapiens, UniProt P61586, G14V).
T1 construct: expressed in transfected cells; host or cells: yeast strain L40
The assay can be described thus: Yeast two-hybrid, truncated PKN with RhoA^Val14CLVL^−. The note with it: yeast L40. It counts as binding. The source says:
The cDNA fragments encoding various length of human PKN were inserted into the vector pBTM116 (Example 7) in frame with the upstream LexA DNA-binding domain sequences or the vector pVP16 (Example 7) in frame with the upstream VP16 transcription activation domain sequences. The cDNA fragments encoding human RhoA, RhoA^Val14, and RhoA^Ala37 were obtained by digesting pGEX-RhoA, pGEX-RhoA^Val14, and pGEX-RhoA^Ala37 (Example 1) with restriction enzymes, respectively, then cloned into pBTM116 and pVP16.
The expression plasmids were transfected into yeast L40 cells and plated on semi-solid media lacking tryptophan and leucine. Interaction was examined using a filter lift assay for the β-galactosidase activity in the same manner as in Example 6. […]

A further assay has as its target T2, wild type RhoA (Homo sapiens, UniProt P61586).
T2 construct: expressed in transfected cells; host or cells: yeast strain L40
Kind of assay: Yeast two-hybrid, N-terminal region of PKN with wild type RhoA. It counts as binding. The settings on record: yeast L40, histidine requirement. The source says:
(§1) According to a method described in A. B. Vojetk et al. Cell 74, 205-214 (1993), wild type H-Ras, wild type RhoA with C-terminal CAAX structure removed (S. Ando et al. Jikken Igaku 11, 1973-1980 (1993)), and variant RhoA^Val14cDNA fragment, were introduced into pBTM116 vector (A. B. Vojetk et al, ibid.) to construct vectors (designated as pBTM116-RasWT, pBTM116-RhoWT, and pBTM116-Rho^Val14), for expression thereof and LexA as fusion protein in yeast cells, which were then transformed into yeast (strain L40).
(§2) cDNA in N-terminal region (the amino acid sequence 7-155 in SEQ ID NO: 1) of PKN was introduced into BamHI site of pACT vector ([…] Library Kit, manufactured by Clontech Laboratories, Inc.) to construct a vector (designated as pACTIIHK-PKN-N) for expression thereof and GAL4 as fusion protein in yeast cells. The cDNA fragment, used here, corresponding to the N-terminal region of PKN was prepared as described in Example 4 (1).
(§3) Yeast transformed with pBTM116-RasWT, pBTM116-RhoWT, and pBTM116-Rho^Val14 was further transformed with pACTIIHK-PKN-N. Transformants were screened based on histidine requirement (A. B. Vojetk et al, Cell 74, 205-214 (1993).

A further assay concerns the target T3, variant RhoA^Val14 (Homo sapiens, UniProt P61586, G14V).
T3 construct: expressed in transfected cells; host or cells: yeast strain L40
Kind of assay: Yeast two-hybrid, N-terminal region of PKN with RhoA^Val14. It counts as binding. The settings on record: yeast L40, histidine requirement.
Text: as §1, §2, §3

Assay [1] has as its target T4, binding of PKN to GTPγS.GST-RhoA (Homo sapiens, UniProt P61586).
T4 construct: made in house; PKN 1-474: in vitro translation
Kind of assay: Inhibition of binding between in vitro translated PKN and GTPγS.GST-RhoA by synthetic peptides. The settings on record: concentration-dependent. How it is done: A protein corresponding to the amino acid sequence 1-474 in SEQ ID NO: 1) was prepared by in vitro translation. GTPγS or GDP.GST-RhoA (15 nM) was incubated with PKN (1.5 μl) prepared by in vitro translation in a total volume of 200 μl of binding buffer (20 mM Tris/HCl at pH 7.5, 1 mM EDTA, 0.5 mM DTT, 5 mM MgCl2 and 1 μg/ml leupeptin) for 60 min at 4° C. Then 40 μl of glutathione-Sepharose 4B (Pharmacia Biotech) preincubated in binding buffer containing 10 mg/ml E. coli extracts to block non-specific binding was added, and the mixture was rotated for 30 min at 4° C. Unbound proteins were removed by four washes with binding buffer containing 0.2% Nonidet P-40 and 50 mM NaCl, and by two washes with binding buffer. Specifically bound proteins were eluted with binding buffer containing 10 mM reduced glutathione and subjected to SDS-PAGE, and the gel was subjected to autoradiography.
Synthetic peptide fragments for potential RhoA binding region of PKN were synthesized with an automated peptide synthesizer (Applied Biosystems, model 431). An experiment using synthetic peptides wes carried out using the peptides in various concentrations in 200 μl of binding buffer.

Another assay has as its system α-actinin (HuActSkl). The assay can be described thus: Yeast two-hybrid, regions of PKN with HuActSkl. It counts as binding, human. The method, then:
Schemes of the fusion constructs for human PKN, human skeletal muscle type α-actinin (HuActSkl , designated in (Beggs, A., et al., J. Biol. Chem. 267, 9281-9288 (1992)) and non-skeletal muscle type α-actinin (HuActNm, designated in (Beggs, A., et al., J. Biol. Chem. 267, 9281-9288 (1992)) used in this study are shown in FIGS. 41 and 42. Screening of proteins, which bind to the N-terminal region of human PKN (the amino acid sequence 1-540, this region being designated as “PKNNl”), was performed as described in Example 6. Primary positive clones were recovered and retransfected into the original yeast host strain YGH1 (a, ura3-52, his3-200, ade2-101, lys2-801, trpl-901, leu2-3, Can^r, gal4-542, gal80-538, LYS2::gal1uas-gal1tala-HIS3, URA3::gall-lacZ) in combination with the Gal4bd-PKN or the Gal4bd-p53 tumor suppresser. Plasmids that activated marker expression only in the presence of PKN were analyzed further.
The two-hybrid methods was employed to identify the region of PKN that interacted with HuActSkl , and this region was compared with the binding site for RhoA, which binds to PKN, in vitro and in vivo. […] This region corresponds to the second leucine zipperlike sequence and the N-terminal region adjacent thereto, which is conserved through evolution in vertebrates (Mukai, H., et al., Biochim. Biophys. Acta 1261, 296-300 (1995)). […]

The target in assay [2] is T5, binding of full-length α-actinin (HuActSkl) to GST-PKNN1 (Homo sapiens, UniProt P35609).
T5 construct: 2 μl of in vitro translated full-length HuActSkl was mixed with 5 μg of GST-PKNN1 fusion protein; made in house; host or cells: HuActSkl: rabbit reticulocyte lysate; GST-PKNN1: E. coli
Kind of assay: Effect of PI4,5P2 on in vitro binding between α-actinin and PKN. How it is done:
For analysis of the effect of phosphatidylinositol 4,5 bisphosphate (PI4, 5P2) (Boehringer Mannheim) on the binding between α-actinin and PKN, 2 μl of in vitro translated full-length HuActSkl was mixed with 5 μg of GST-PKNN1 fusion protein or with 25 μg of GST alone in 400 μl of buffer P (20 mM Tris/HCl at pH 7.5, 0.5 mM DTT, 120 mM NaCl, 1 mM EDTA) and incubated for 1 hr at room temperature with or without PI4, 5P2. After addition of 25 μl of glutathione-Sepharose 4B pretreated with E. coli extract, the binding reaction was continued for additional 30 min at 4° C. The glutathione-Sepharose 4B was then washed four times in buffer P containing 0.01% Triton X-100. Bound proteins were eluted with GST elution buffer and were subjected to SDS-PAGE. The binding was visualized and quantitated by an imaging analyzer (FUJI BAS1000).

Turning to lysophosphatidic acid [LAP], the “stimulation of autophosphorylation of PKN” value in the assay with PKN in Swiss 3T3 cells is “twice”.

Turning to “amino acid sequence 1-538: truncated human PKN, amino acid sequence 1-538 in SEQ ID NO: 1, two-hybrid fusion”, the “interaction with RhoA^Val14 CLVL^− (β-galactosidase filter assay)” value in the assay with RhoA^Val14 CLVL^− is given as “interacted”.

On to “N-terminal region (amino acids 7-155) of PKN: amino acid sequence 7-155 in SEQ ID NO: 1 expressed as GAL4 fusion protein in yeast”, for which the “binding to wild type RhoA” value with wild type RhoA is recorded as “binds”. Moreover, the “binding to variant RhoA^Val14” value with variant RhoA^Val14 is on record as “binds”.

Consider “amino acid sequence 74-93: synthetic peptide fragment corresponding to the amino acid sequence 74-93 in SEQ ID NO: 1 (ELLLRGSSRRLDLLHQQLQE; UniProt Q16512 74-93, looked up, fragment)”, for which the “inhibition of binding of PKN to GTPγS.GST-RhoA” value (from here on “inhibition of binding of PKN”) in assay [1] was “inhibited the binding”.

For “amino acid sequence 33-111: truncated human PKN, amino acid sequence 33-111 in SEQ ID NO: 1, Rho protein-binding region”, in the assay on α-actinin (HuActSkl), the “interaction with α-actinin in two-hybrid system” value is reported as “hardly interacted”. The “interaction with RhoA^Val14 CLVL^− (β-galactosidase filter assay)” value with RhoA^Val14 CLVL^− is on record as “interacted”.

Take “phosphatidylinositol 4,5 bisphosphate [PI4, 5P2]”: in assay [2] (10 μM), the “effect on binding of full-length α-actinin to PKN” value is given as “stimulated the binding”. Moreover, in assay [2] (decreased at higher concentrations up to 100 μM), the “concentration up to which binding activity was elevated” value is 2.5 to 10 µM.

As to “amino acid sequence 82-103: synthetic peptide fragment corresponding to the amino acid sequence 82-103 in SEQ ID NO: 1 (RRLDLLHQQLQELHAHVVLPDP; UniProt Q16512 82-103, looked up, fragment)”, the “inhibition of binding of PKN” value in assay [1] is “excellent inhibitory activity; also recorded: inhibited the binding”.

With “amino acid sequence 94-113: synthetic peptide fragment corresponding to the amino acid sequence 94-113 in SEQ ID NO: 1 (LHAHVVLPDPAATHDGPQSP; UniProt Q16512 94-113, looked up, fragment)”, in assay [1], the “inhibition of binding of PKN” value is listed as “inhibited the binding”.

The record behind these values is patent publication US6660837B1, “Modified protein derived from protein kinase N” (Kirin Beer Kabushiki Kaisha, priority 1995, dated 2003).
